The target of assay [1] is T1, GPCR142 (Homo sapiens, UniProt Q8TDU9, L329S). In words: Inhibition of forskolin-stimulated cAMP (CRE-β-galactosidase) in SK-N-MC cells. The class given is cell-based. Set-up: The complete coding region of human GPCR142 was PCR-amplified from human genomic DNA; expressed in transfected cells; HEK293 co-transfected with Gqi5 (Ca2+). The following applies: SK-N-MC cells stably expressing GPCR142. On the procedure:
SK-N-MC cells stably expressing GPCR142 were established by transfection of GPCR142 expressing plasmids into SK-N-MC cells harboring a β-galactosidase gene under control of multiple cAMP responsive elements. The stable transfectants were selected by culturing the transfected cells under G418 selection (400 mg/L). The receptor expressing cells were seeded in 96-well plates at a cell density of 30,000 cells/well. After 24 h, cells were stimulated with forskolin or different peptides. Cells were cultured for an additional 6 h and the intracellular β-gal activity, which represents the intracellular cAMP accumulation, was measured as described by Liu et al. (2000), Mol. Pharmacol., 59, 420-426.

Assay [2] has as its target T1, GPCR142. Put plainly: GTPγS binding assay, GPCR142 expressing cell membranes. The format is biochemical. On the set-up: The complete coding region of human GPCR142 was PCR-amplified from human genomic DNA; expressed in transfected cells; CHO membranes (GTPγS); HEK293 co-transfected with Gα16 (Ca2+). Here is the method:
The GPCR142 expression vector described above was transfected into CHO cells using Lipofectamine (Invitrogen) according to the manufacturer's instructions. Two days after transfection, the cells were harvested and the cell membranes were prepared by homogenizing the cells in cold 50 mM Tris-HCl, 5 mM EDTA, pH 7.5 followed by centrifugation at 4° C. 1000 g for 10 min. The supernatant was centrifuged at 4° C. 20,000 g for 30 min and the pellet was re-suspended in GTPγS binding buffer: 50 mM Tris-HCl, pH 7.4, 10 mM MgCl2, 1 mM EDTA, pH 8.0, and 100 mM NaCl using a polytron tissue homogenizer. Protease inhibitors were added to the buffer at concentrations of 1 mM PMSF, 10 μg/ml of pepstatin A, 10 μg/ml of leupeptin. Cell membranes and different concentrations of ligands were added to 96-well plates and incubated at room temperature for 20 min. ^35S-GTPγS (NEN) was then added to each well at a final concentration of […] in a final volume of 200 μL. The reactions were allowed to proceed at room temperature for 1 h, and then the mixtures were filtered though a 96-well GFC filter plate (Packard) and washed with cold washing buffer: 50 mM Tris-HCl, pH 7.4, 10 mM MgCl2. Fifty microliters of Microscint-40 (Packard) was added to each well and the plate was counted on a top counter (TopCount NTX, Packard).
(Binding of GTPγS marks nucleotide exchange on a G protein.)

The target of assay [3] is T1, GPCR142. Put plainly: Radioligand binding assay with 125I-relaxin3 (saturation and competition), COS-7 cell membranes. On the set-up: The complete coding region of human GPCR142 was PCR-amplified from human genomic DNA; expressed in transfected cells. The conditions noted are these: competition binding, COS-7 membranes. On the procedure:
The binding mixtures were incubated at room temperature for 1 h and then were filtered through 96-well GFC plates (Packard) and washed with ice-cold washing buffer: 50 mM Tris-HCl, pH 7.4. Fifty microliters of Microscint-40 were added to each well and the plates were counted in a Topcounter NTX (Packard). The radioligand binding results were analyzed using GraphPad PRISM software.
The binding assays were performed at room temperature for an incubation time of one hour. The binding mixtures were then filtered through GFC filters pre-saturated with 0.3 polyethylenimine (Sigma) and washed with cold binding buffer. The bound radioligand was counted in a top counter (TopCount/NTX, Packard) with Microscint-40. The results were analyzed by Prism 3.0 software.

Assay [4] concerns the target T1, GPCR142. In words: Ca2+ mobilization assay (FLIPR), HEK293 cells co-expressing GPCR142 and Gα16. The class given is cell-based. Set-up: The complete coding region of human GPCR142 was PCR-amplified from human genomic DNA; expressed in transfected cells; HEK293 co-transfected with Gα16 (Ca2+). Here is the method: Human embryonic kidney (HEK) 293 cells were transfected with GPCR135,.GPCR142 or co-transfected with Gqi5 (Conklin et al. (1993), Nature 363, 274-280) or Gα16 (Amatruda et al. (1991), Proc. Natl. Acad. Sci. U.S.A. 88, 5587-5591) expressing plasmids using LipofectAmine. Two days after transfection, cells were detached with PBS plus 10 mM EDTA. The detached cells were washed with DMEM-F12 medium (without phenol red, Invitrogen) and seeded in black poly-D lysine coated 96-well plates (BD Biosciences, San Jose, Calif.) at a cell density of 50,000 cell/well.
On the technique in general: Calcium assays in cells follow changes in intracellular calcium, usually with a dye or a luminescent sensor.

Assay [5] deals with T2, human GPCR142 (human, UniProt Q8TDU9 1-374).
T2 construct: Expressed in COS-7, CHO, SK-N-MC or HEK293 cells
Put plainly: competition binding with ^125I-relaxin3, membranes of COS-7 cells expressing GPCR142. Here is the method:
(§1) The binding mixtures were incubated at room temperature for 1 h and then were filtered through 96-well GFC plates (Packard) and washed with ice-cold washing buffer: 50 mM Tris-HCl, pH 7.4. Fifty microliters of Microscint-40 were added to each well and the plates were counted in a Topcounter NTX (Packard).

Assay [6] addresses T2, human GPCR142. In words: saturation radioligand binding, membranes of COS-7 cells transiently expressing GPCR142. Here is the method:
as §1

Assay [7] has as its target T2, human GPCR142. Put plainly: competition binding with ^125I-relaxin3, membranes of COS-7 cells transiently expressing GPCR142. Here is the method: as §1
Assay [8] addresses T2, human GPCR142. Put plainly: cell-based or functional assay.

As usually defined, the Kd is the constant that tells how readily two partners part at equilibrium. A high value points to weaker binding. For orientation: Ki means a measure of affinity in units of concentration, obtained from inhibition or displacement.

No end group written: not given here.

T2 sequence (Q8TDU9 whole entry L329S): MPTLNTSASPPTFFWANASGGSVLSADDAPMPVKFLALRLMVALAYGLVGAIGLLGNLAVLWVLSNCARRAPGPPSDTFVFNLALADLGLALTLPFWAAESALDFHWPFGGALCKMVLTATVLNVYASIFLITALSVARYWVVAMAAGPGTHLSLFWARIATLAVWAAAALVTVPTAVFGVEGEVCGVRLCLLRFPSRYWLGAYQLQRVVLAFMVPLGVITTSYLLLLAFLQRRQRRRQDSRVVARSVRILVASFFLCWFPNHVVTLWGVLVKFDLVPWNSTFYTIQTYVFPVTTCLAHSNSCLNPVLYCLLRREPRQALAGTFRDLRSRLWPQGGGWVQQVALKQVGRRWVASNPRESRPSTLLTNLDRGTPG
T1 sequence (Q8TDU9 whole entry L329S): as above

Consider `CC[C@H](C)[C@@H]1NC(=O)[C@H](Cc2ccccc2)NC(=O)[C@H](CCC(=O)O)NC(=O)[C@H](CCCNC(=N)N)NC(=O)CNC(=O)[C@@H](NC(=O)[C@H](CC(C)C)NC(=O)[C@H](CCCNC(=N)N)NC(=O)[C@@H](NC(=O)CNC(=O)[C@H](Cc2ccc(O)cc2)NC(=O)[C@@H]2CCCN2C(=O)[C@H](C)NC(=O)[C@H](C)NC(=O)[C@@H](N)CCCNC(=N)N)C(C)C)CSSC[C@@H](C(=O)NCC(=O)NCC(=O)N[C@@H](CO)C(=O)N[C@@H](CCCNC(=N)N)C(=O)N[C@@H](Cc2c[nH]c3ccccc23)C(=O)O)NC(=O)[C@H]([C@@H](C)O)NC(=O)[C@H](Cc2ccccc2)NC(=O)[C@H]([C@@H](C)CC)NC(=O)[C@H](C(C)C)NC(=O)[C@H](C)NC(=O)[C@H](CCCNC(=N)N)NC1=O` [relaxin3 B-chain, reference compound], for which the “inhibition of forskolin induced β-galactosidase expression” value at GPCR142 [1] was “showed ligand activity, albeit with a significantly lower potency”. The “stimulation of 35S-GTPγS binding (agonist activity)” value at GPCR142 [2] was “stimulate”. On GPCR142 [3], the “displacement of 125I-relaxin3 binding to GPCR142” value is on record as “displaced”.

Consider “INSL5: Human INSL5 (SEQ ID NO: 5), recombinantly expressed in COS-7 cells, relaxin/insulin superfamily peptide (KESVRLCGLEYIRTVIYICASSRWQDLQTLCCTDGCSMTDLSALC; ends and bridges not checked; cysteine pairing not given here; listed as Homo sapiens)”, for which the “inhibition of forskolin induced β-galactosidase expression” value in the assay with GPCR142 [1] is “dose-dependently inhibits”. The “stimulation of 35S-GTPγS binding (agonist activity)” value in the assay with GPCR142 [2] is on record as “stimulated GTPγS binding”. Also, in the assay with GPCR142 [4], the “stimulation of Ca2+ mobilization” value is “stimulated Ca2+ mobilization”. Further, the “displacement of 125I-relaxin3 binding to GPCR142” value with GPCR142 [3] is “specifically displaced”.

B1: Human INSL4 (ligand)
chain 1: AELRGCGPRFGKHLLSYCPMPEKTFTTTPGGWL
chain 2: SGRHRFDPFCCEVICDDGTSVKLCT
In the case of B1, in the assay with human GPCR142 [5], the binding result was “no binding”.

B2: ^125I-relaxin3 (ligand)
chain 1: RAAPYGVRLCGREFIRAVIFTCGGSRW
chain 2: DVLAGLSSSCCKWGCSKSEISSLC
modifications: ends and bridges not checked; also: 125I label, residue not given here
notes: also called radioligand; tracer
For B2, in the assay with human GPCR142 [6], binding was characterised by a dissociation constant (Kd) of 1.9 nM.

B3: relaxin3 B-chain (peptide, UniProt Q8WXF3 26-52, looked up)
peptide: RAAPYGVRLCGREFIRAVIFTCGGSRW
modifications: not fully specified (bridges); ends and bridges not checked; also: oxidized
notes: domain: B-chain; Bought peptide; also called oxidized relaxin-3 B-chain peptide
B3 had an inhibition constant (Ki) with human GPCR142 [7] of 85 nM. Further, the “EC50, GTPγS binding assay” value with human GPCR142 [8] was ~100 nM.

B4: Porcine relaxin (ligand)
chain 1: QSTNDFIKACGRELVRLWVEICGSVSWGRTAL
chain 2: RMTLSEKCCQVGCIRKDIARLC
notes: The results paragraph prints only 'relaxin'
Turning to B4, in the assay with human GPCR142 [5], the binding result was “no binding”.

B5: relaxin3 A-chain (peptide, UniProt Q8WXF3 119-142, looked up)
peptide: DVLAGLSSSCCKWGCSKSEISSLC
modifications: ends and bridges not checked; also: oxidized
notes: domain: A-chain; Bought peptide; also called oxidized relaxin-3 A-chain peptide
Consider B5, for which the binding result with human GPCR142 [5] is listed as “no binding”.

The values above are taken from patent US20050059089A1 (priority 2003, published 2005).
